Data on 1 molecule can be found in article PMC4652282, “An Efficient Site-Specific Method for Irreversible Covalent Labeling of Proteins with a Fluorophore”.

Conditions in all cases: protein: recombinant; tags: C-terminal SS-his6-GG-ald6 (LCTPSR); chain copies: 2; blunt, one internal G/T mismatch
Series [1] addresses T1, EcMutS-his6/ald6, AF647-labeled (Escherichia coli, UniProt P23909 1-853).
T1 sequence: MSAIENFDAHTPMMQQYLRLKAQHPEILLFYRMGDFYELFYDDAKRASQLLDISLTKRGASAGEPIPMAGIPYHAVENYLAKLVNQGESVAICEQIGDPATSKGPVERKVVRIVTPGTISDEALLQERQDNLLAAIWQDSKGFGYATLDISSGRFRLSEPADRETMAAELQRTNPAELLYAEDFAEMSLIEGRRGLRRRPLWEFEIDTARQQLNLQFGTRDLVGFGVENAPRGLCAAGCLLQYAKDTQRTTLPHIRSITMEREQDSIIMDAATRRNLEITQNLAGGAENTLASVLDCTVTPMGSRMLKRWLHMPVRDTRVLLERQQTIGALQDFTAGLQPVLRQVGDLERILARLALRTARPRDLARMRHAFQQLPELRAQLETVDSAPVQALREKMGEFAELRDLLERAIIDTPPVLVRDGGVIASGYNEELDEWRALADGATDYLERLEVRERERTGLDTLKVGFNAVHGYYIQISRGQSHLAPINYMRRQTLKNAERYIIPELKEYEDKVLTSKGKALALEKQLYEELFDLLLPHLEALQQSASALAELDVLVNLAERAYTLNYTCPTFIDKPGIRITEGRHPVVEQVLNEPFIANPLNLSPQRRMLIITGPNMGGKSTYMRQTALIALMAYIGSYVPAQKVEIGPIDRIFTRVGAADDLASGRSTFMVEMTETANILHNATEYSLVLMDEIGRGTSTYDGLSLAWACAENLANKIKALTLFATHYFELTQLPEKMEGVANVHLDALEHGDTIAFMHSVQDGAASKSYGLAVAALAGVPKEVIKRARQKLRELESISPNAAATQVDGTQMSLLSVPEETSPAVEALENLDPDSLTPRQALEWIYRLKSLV
Briefly: SPR; kon 3.44e5 M-1 s-1; koff 8.93e-4 s-1; koff with ATP 0.26 s-1; SPR at 25 C, buffer not shown; EMSA: 25 mM Hepes (GS Buffer, rest not shown), on ice 15 min. In general terms: Surface plasmon resonance follows binding to a sensor surface in real time, without labels.

Series [2] concerns the target T2, EcMutS-his6/ald6, unlabeled (Escherichia coli, UniProt P23909 1-853).
T2 sequence: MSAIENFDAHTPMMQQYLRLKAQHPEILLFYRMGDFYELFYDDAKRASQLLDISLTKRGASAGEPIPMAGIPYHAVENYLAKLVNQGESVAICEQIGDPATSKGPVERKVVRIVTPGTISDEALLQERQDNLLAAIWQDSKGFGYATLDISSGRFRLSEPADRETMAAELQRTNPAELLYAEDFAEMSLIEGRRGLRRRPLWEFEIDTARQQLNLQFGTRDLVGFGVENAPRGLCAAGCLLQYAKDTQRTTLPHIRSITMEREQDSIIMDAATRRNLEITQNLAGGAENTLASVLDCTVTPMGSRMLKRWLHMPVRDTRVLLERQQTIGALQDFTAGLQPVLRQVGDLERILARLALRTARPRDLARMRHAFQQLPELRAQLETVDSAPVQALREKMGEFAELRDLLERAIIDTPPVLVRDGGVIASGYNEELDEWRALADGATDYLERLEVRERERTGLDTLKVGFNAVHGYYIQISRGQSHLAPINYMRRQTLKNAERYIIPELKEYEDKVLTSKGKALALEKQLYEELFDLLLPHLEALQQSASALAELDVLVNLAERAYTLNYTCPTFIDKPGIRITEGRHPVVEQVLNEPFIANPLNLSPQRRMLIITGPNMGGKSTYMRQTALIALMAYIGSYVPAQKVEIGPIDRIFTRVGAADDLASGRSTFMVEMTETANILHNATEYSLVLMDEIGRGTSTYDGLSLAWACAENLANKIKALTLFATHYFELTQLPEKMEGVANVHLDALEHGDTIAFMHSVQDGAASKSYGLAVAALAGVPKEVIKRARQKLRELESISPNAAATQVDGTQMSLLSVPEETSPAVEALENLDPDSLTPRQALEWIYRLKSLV
Briefly: SPR; kon 5.29e5 M-1 s-1; koff 6.10e-4 s-1; koff with ATP 0.53 s-1; SPR at 25 C, buffer not shown; EMSA: 25 mM Hepes (GS Buffer, rest not shown), on ice 15 min.

Series [3] deals with T3, EcMutS-his6/ald6(D835R,R840E), AF555-labeled (Escherichia coli, UniProt P23909 1-853, D835R;R840E).
T3 sequence: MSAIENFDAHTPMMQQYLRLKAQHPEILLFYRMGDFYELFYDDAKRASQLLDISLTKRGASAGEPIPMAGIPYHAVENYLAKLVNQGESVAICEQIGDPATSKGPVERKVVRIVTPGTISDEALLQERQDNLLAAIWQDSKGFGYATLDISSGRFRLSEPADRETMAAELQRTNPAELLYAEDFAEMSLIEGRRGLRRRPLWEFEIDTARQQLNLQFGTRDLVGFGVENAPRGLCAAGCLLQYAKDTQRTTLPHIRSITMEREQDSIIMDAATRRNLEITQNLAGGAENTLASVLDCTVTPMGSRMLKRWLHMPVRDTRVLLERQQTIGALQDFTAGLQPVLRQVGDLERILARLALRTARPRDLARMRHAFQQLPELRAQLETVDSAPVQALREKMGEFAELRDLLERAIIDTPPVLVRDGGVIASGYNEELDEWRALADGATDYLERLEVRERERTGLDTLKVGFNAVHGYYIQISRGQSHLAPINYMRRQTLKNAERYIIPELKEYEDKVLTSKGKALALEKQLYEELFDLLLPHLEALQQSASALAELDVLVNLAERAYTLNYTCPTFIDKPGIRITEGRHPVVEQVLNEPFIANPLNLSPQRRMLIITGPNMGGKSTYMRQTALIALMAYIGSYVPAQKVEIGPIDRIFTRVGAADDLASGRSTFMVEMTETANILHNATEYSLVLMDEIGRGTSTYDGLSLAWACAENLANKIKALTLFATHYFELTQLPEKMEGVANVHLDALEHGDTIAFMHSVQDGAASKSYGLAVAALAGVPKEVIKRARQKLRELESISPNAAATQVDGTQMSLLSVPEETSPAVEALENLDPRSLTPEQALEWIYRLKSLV
Briefly: SPR; kon 4.37e5 M-1 s-1; koff 24.48e-4 s-1; koff with ATP 0.45 s-1; SPR at 25 C, buffer not shown; EMSA: 25 mM Hepes (GS Buffer, rest not shown), on ice 15 min.

The target in series [4] is T4, EcMutS-his6/ald6(D835R,R840E), unlabeled (Escherichia coli, UniProt P23909 1-853, D835R;R840E).
T4 sequence: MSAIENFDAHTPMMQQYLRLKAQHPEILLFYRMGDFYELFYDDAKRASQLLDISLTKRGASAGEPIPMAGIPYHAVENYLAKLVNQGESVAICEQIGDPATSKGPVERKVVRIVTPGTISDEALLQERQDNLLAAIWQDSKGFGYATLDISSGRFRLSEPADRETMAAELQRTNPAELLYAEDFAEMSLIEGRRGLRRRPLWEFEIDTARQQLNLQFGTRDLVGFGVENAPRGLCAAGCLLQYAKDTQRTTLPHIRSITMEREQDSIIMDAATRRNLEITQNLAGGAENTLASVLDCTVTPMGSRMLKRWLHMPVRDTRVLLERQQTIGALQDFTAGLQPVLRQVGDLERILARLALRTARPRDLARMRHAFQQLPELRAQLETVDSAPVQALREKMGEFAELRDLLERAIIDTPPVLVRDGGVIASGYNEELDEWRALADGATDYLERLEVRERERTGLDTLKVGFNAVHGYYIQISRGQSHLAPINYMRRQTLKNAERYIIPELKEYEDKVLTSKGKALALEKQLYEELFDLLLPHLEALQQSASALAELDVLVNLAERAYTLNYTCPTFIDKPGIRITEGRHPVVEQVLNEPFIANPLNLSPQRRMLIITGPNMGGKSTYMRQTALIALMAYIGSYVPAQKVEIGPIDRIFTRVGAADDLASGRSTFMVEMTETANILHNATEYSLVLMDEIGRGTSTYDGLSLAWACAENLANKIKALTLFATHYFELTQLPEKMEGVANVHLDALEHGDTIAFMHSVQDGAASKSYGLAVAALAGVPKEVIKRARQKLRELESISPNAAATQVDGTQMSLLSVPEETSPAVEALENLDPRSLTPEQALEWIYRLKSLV
The experiment in a line: SPR; kon 9.48e5 M-1 s-1; koff 33.02e-4 s-1; koff with ATP 0.48 s-1; SPR at 25 C, buffer not shown; EMSA: 25 mM Hepes (GS Buffer, rest not shown), on ice 15 min.

B1: G/T mismatch DNA (SPR) (dsDNA)
DNA 1: AACTATAGGGCGAATTGGGTACCGCTGAATTGCACCGAGCTTGATCCTCGATGATCCTAAGCTAAGCTTCAGCTCCAGCTTT
DNA 2: AAAGCTGGAGCTGAAGCTTAGCTTAGGATCATCGAGGATCGAGCTCGGTGCAATTCAGCGGTACCCAATTCGCCCTATAGTT
What is called Kd is the equilibrium constant for the complex coming apart. As for B1, the Kd in series [1] worked out at 2.63 ± 0.49 nM; in series [2], 1.25 ± 0.53 nM; in series [3], 5.75 ± 1.51 nM; in series [4], 3.85 ± 1.78 nM.
